1 substance from paper PMC3547953 can be followed below.

In this assay the target is tumor necrosis factor-alpha (TNF-α) (UniProt P01375).
Sequence of UniProt P01375 (P01375 77-233): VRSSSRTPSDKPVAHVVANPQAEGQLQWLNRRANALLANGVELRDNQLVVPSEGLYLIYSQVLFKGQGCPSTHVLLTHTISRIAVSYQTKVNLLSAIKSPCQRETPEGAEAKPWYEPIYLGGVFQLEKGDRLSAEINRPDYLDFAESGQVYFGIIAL

Turning to “anti-TNF-α antibody (ENBREL), a chimeric molecule combining the ligand-binding domain of the TNF-receptor 2 and the Fc-domain of human IgG1 (Fc fusion)”, the apoptosis (TUNEL, DNA strand breaks) of uninfected monocytes induced by added TNF-α, with anti-TNF-α mAb (ENBREL, 1 µg/ml) came out at 50%.
